# Measurements from US20080248995, “Modulation of PPARgamma2 gene promoter by FOXO1” (Technion Research and Development Foundation Ltd., published 2008).
# B1: hPPARγ2 promoter bp 270-310 (dsDNA)
# DNA 1: GACACTGAACATGTGGGTCACCGGCGAGACAGTGTGGCAA
# DNA 2: TTGCCACACTGTCTCGCCGGTGACCCACATGTTCAGTGTC
# Legend:
# [1] = biological target: FOXO1 (FLAG-tagged, transfected) (Homo sapiens) (UniProt Q12778); assay: cell_activity; details: 3xIRS-LUC in primary rat adipocytes, data not shown
# [2] = biological target: T1, FOXO1 (FLAG-tagged, full-length) (Homo sapiens, UniProt Q12778 SEQ:126-780); assay: EMSA; competed by 100x and 200x unlabeled probe; supershift with anti-FLAG and anti-FOXO1 H-128, not N-18; 50 mM KCl, 1 mM EDTA, pH 7.9, poly(dI-dC), 25 C; details: tags: FLAG; TnT reticulocyte lysate; label: 32P
# T1 chain: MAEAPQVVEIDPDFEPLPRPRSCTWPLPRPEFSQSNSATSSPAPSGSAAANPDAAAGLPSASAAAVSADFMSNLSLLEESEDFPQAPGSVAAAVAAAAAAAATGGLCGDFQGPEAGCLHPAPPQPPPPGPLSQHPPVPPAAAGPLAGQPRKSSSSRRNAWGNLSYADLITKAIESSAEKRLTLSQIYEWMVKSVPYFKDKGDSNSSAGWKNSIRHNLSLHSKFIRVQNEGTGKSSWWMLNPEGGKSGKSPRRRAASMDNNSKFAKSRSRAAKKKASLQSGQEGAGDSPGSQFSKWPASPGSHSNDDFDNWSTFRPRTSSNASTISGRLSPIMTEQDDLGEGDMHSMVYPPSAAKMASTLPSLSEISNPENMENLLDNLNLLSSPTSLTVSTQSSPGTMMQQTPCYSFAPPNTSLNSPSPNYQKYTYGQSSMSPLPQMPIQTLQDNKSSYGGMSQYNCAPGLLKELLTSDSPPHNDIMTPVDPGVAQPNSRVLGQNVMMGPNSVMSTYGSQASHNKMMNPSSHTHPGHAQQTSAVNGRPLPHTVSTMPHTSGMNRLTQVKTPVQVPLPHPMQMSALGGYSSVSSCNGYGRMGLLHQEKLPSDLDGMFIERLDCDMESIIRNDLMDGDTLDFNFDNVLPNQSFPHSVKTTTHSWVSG
# Experimental: (vi) In vitro Translation and Electrophoretic Mobility Shift Assay (EMSA)—In vitro translation of FOXO1 proteins and EMSA studies were performed as described (Armoni et al., 2003). The TnT SP6/T7-coupled reticulocyte lysate system (Promega, Madison Wis.) was used to generate in vitro translated FLAG-tagged FOXO1 proteins from the corresponding cDNA, and the resulting protein lysate was used in EMSA. Protein expression was confirmed by SDS-PAGE, followed by phosphorimaging analysis of proteins translated in the presence of ³⁵S-methionine (cell labeling grade; Amersham, Buckinghamshire, UK). In vitro translation reactions generated sufficient protein to use in EMSA studies. Sense and antisense PPARγ promoter-derived oligonucleotides were synthesized that correspond to bp 270-310 of hG2-587 (sense: […] TGGGT […]) (SEQ ID NO: 4); these were annealed and end-labeled with γ-³²P-ATP (6000 Ci/mmol; Amersham, Buckinghamshire, UK) in the presence of polynucleotide kinase. Protein-DNA binding reactions were assembled in a total volume of 20 μl, which included 4 μl of the in vitro translated FOXO1 lysate, radiolabeled probe (˜75,000 cpm), and 4 μg of poly(dI-dC) in a buffer containing 10 mM HEPES (pH 7.9), 1 mM dithiothreitol, 1 mM EDTA, 4% Ficoll, and 50 mM KCl. […] Gels were fixed in 10% acetic acid for 15 min, dried, and analyzed by phosphorimaging.
molecule,measurement,setting,value
3xIRS (three insulin response element repeats) in pGL2-LUC,activity (fold activation),[1],< 8.5
B1,binding result,[2],binds
